Results on 20 molecules are retold here after patent US20250026813A1 (published 2025).

The labels stand for the following.
B1: YANG-2203 (antibody, V domains shown)
VH: QVQLVQSGAEVKQPGASVKVSCRASGYALTSFYVHWVRQAPGQGLEWMGIIKPSGGDTIYAQNLQGRVTMTRDTSTNTFYVELSSLRSEDTALYYCAISGNTRAFEIWGQGTMVTVSL
VL: QSVLTQPPSVSAAPGQKVTISCSGSSSNIGNNFVSWYQQLPGMVPKLLIYANNKRPSGIPDRFSGSRSGTSATLGITGLQTGDEADYYCGTWDSSRSAVLFGGGTKMTVL
B2: YANG-2205 (antibody, V domains shown)
VH: QIQLVQSGAEVKKPGASVKFSCKTSGYTFTSYYMVWVRQAPGQGLEWMGIIKPSGGNTIYAQKFQGRVTMTRDTSTNTVYMDLSSLRSEDTAVYYCARTGDRAFDVWGHGTMITVSS
VL: QSVLTQPPSVSAAPGQKVTISCSGSSSNIGNNFVSWYQQFPGTAPKLLIYDNNKRPSGIPDRFSGSKSGTSATLGITGLQTGDEADYYCGTWDSSLGAGVFGGGTKLTVL
B3: YANG-2204 (antibody, V domains shown)
VH: QMQLVQSGAEVKKPGASVKFSCKTSGYTFTNYYMVWVRQAPGQGLEWMGIIKPSGGNTIYAQKFQGRVTMTRDTSTNTVYMDLTSLRSEDTAVYYCARTGDRAFDVWGQGTMVTVSS
VL: QSVLTQPPSVSAAPGQKVTISCSGSSSNIGNNYVSWYQQLPGTAPKLLIYDNNKRPSGIPDRFSGSKSGTSATLGITGLQTGDEADYYCGTWDSSLGAGVFGGGTKLTVL
B4: YANG-2206 (antibody, V domains shown)
VH: QIQLVQSGAEVKKPGASVKLSCKTSGYTFTSYYMVWVRQAPGQGLEWMGIIKPSGGNTIFAQKFQGRVTMTRDTSTNTVYMDLNSLRSEDTAVYYCARTGDRAFDVWGHGTMVTVSS
VL: QSVLTQPPSVSAAPGQKVTISCSGSSSNIGNNYVSWYQQFPGTAPKLLIYDNNKRPSGIPDRFSGSKSGTSATLGITGLQTGDEADYYCGTWDSSLGAGVFGGGTKVTVL
B5: YANG-2207 (antibody, V domains shown)
VH: QMQLVQSGAEVKKPGASVKISCKTSGYTFTNYYMVWVRQAPGQGLEWMGIIKPSGGNTIYAQKFQGRVTMTRDTSTNTVYLDLSSLRSEDTAVYYCARTGNRAFDVWGHGTMVTVSS
VL: QSVLTQPPSVSAAPGQKVTISCSGSSSNIGNNFVSWYQQFPGTAPKLLIYDNNKRPSGIPDRFSGSKSGTSATLGITGLQTGDEADYYCGTWDSSLGAGVFGGGTKLTVL
B6: YANG-1401 (antibody, V domains shown)
VH: QVHLQESGPGLVKPSGTLSLTCAVSGGSFSQINWWSWVRQSPGKGLEWIGEIYHSGSTNYNPSLKSRVTMSVDKSKNQFSLALNSVTAADTAVYYCARGYYGDNWFDSWGQGTLVTVSS
VL: DIQMTQSPSSLSASIGDRVTITCRASQGISNWLVWYQQKPEKAPKSLIYAASSLQSGVPSRFSGSGSGTDFTLTISSLHPEDFATYYCQQYSDYPLTFGGGTKVEIK
B7: YANG-2208 (antibody, V domains shown)
VH: QIQLVQSGAEVRKPGASVRFSCKTSGYIFTNYYMVWVRQAPGQGLEWMGIIKPSGGNTIYAQKFQGRVTMTRDTSTNTVYMDLNNLRSEDTAVYFCARTGDRAFDVWGQGTMVTVSS
VL: QSVLTQPPSMSAAPGQKVTISCSGNSSNIGNNFVSWYRQFPGTAPKLLIYDNNKRPSGIPDRFSGSKSGTSATLGITGLQTGDEADYYCGTWDSSLSAGVFGGGTKLTVL
B8: YANG-2303 (antibody, V domains shown)
VH: QVQLVQSGAEVKKPGASVRVSCKVSGYTLPELAIHWVRQAPGKGLEWMGGFDPEDGETIYAQKFQGRVIMTEDTSTDTAYMDLSSLRSEDTAVYYCVKTWAAPGYNYGLDTWGQGTTVTVSS
VL: EIVLTQSPGILSLSPGESATLSCRASQSIASNYLAWFQQKPGQAPRLLIYGASSRAAGFPDRFSGSGSGTDFTLTIKRLEPEDSAVYYCQHYGSSPCSFGQGTNLEIK
B9: YANG-2111 (antibody, V domains shown)
VH: GVQLVESGGGLVQPGRSLRLSCAASGFTFDDYALHWVRQVPGKGLEWVSSISWNSDDLGYADSVEGRFTISRDNAKNSLYLQMSSLRTEDTALYYCVKDTRAHYDILAGYRGLDSWGQGTLVTVSS
VL: DIVMTQSPLSLPVTPGEPASISCRSTQSLLHSNGYNFLDWYLQKPGQSPQLLIYLGSNRASGVPDRFSGSGSGTDFSLKISRVEAEDIGIYYCIQGLQTPITFGQGTRLEIK
B10: YANG-2107 (antibody, V domains shown)
VH: QVQLQESGPGLVKPSGTLSLTCAVSGGSIRSSNWWIWVRQSPGKGLEWIGEIYHGGNTNYNPSLKSRVTLSVDKSKNQFSLKLSSVTAADTAVYYCARALYDIGGVFDIWGQGTMVTVSS
VL: QSALTQPASVSGSPGQSISISCTGTSSDIGGYNYVSWYQQHPGKAPKLMIYDVSERPSGVSNRFSGSKSGNTASLTISGLQAEDEGDYYCCSYAANSNVVFGGGTKLSVL
B11: YANG-2108 (antibody, V domains shown)
VH: QVQLQESGPGQVKPSGTLSLTCAVSGGSIRSSNWWIWVRQPPGKGLEWIGEIYHGGNTNYSPSLKSRVSISVDKSKNHFSLNLTSVTAADTAVYYCARALYDVGGVFDIWGQGTMVTVSS
VL: QSALTQPASVSGSPGQSITISCTGSSSDVGGYNYVSWYQQHPGKAPKLMIYDVSERPSGVSNRFSGSKSGNTASLTISGLQAEDEGDYYCCSYAANSNVVFGGGTKLSVL
B12: YANG-1112 (antibody, V domains shown)
VH: QITLKESGPTLVKPTQTLTLTCTFSGFSLSTGGVAVGWIRQPPGKALEWLAIIYWDDDKRYSPSLKSRLTITKDTSKNQVVLTMTNMDPVDTATYYCAHWGKDSFDIWGQGTMVTVSS
VL: SYELTQPPSVSVSPGQTARITCSGDALPRKYAYWYQQKSGQAPVLVIYEDNNRPSGIPERFSGSSSGTTATLTVSGAQVEDEADYYCYSTDTSGYVVFGGGTKLTVL
B13: YANG-1301 (antibody, V domains shown)
VH: QVQLVESGGGVVQPGRSLRLSCAASGFTFSSYGMHWVRQAPGKGLEWVAVIWYDGSNKFYADSVKGRFTISRDNSKNTLYLQMNSLKAEDTAVYYCARDTWIGESDTSWLDPWGQGTLVTVSS
VL: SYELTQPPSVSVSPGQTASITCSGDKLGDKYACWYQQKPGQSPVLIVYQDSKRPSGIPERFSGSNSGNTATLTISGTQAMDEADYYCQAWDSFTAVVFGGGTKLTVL
B14: YANG-2301 (antibody, V domains shown)
VH: QVHLIQSGAEVKKPGASVKVSCKVSGYTLIEVSVHWVRQAPGKGLEWMGGFDPEAAETIYAQKFQGRVTMTEDTSTDTAYMDLSSLKSEDSAVYYCAIGPAVTGRNSGEYYYYYGMDVWGQGTTVTVAS
VL: EIVMTQSPATLSVSPGERATLSCRASQSVNSNLAWYQQKPGQAPRLLIYAVSTRATGLPARFSGSGSGTEFTLTISSLQSEDFVVYYCHQYNNWPLTFGGGTKVEIK
B15: YANG-1302 (antibody, V domains shown)
VH: QVQLVESGGGAVQPGRSLRLSCRASGFTFSSFGMNWVRQVPGKGLVWVAGIWYDGRNKYYADSVKGRFTISRENSKNMLYLQMNSLRAEDTAVYYCARDQDSGFDGNWFGPWGQGTMVTVSS
VL: SYELTQPPSMSVSPGQTASITCSGDNLGDKYVCWYQQRPGQSPVMVIFQDSTRPSGIPERFSGSNSGNTATLTISGTQAMDEADYYCQAWDSNTAVFGGGTKLTVL
B16: YANG-2302 (antibody, V domains shown)
VH: QVQLVQSGAEVRKPGASVKVSCKVSGYTLPELAIHWVRQAPGKGLEWMGGFIPEDGDTIYAQKFQGRVTMTEDTSTDTAYMDLTSLRSEDAAVYYCTSGWAAPGYNYGMAVWGQGTTVTVSS
VL: EVVLTQSPGTLSLSSGERATLSCRASQSVSSNYLAWYQKKPGQAPRLLIYGASSRVTGIPDRFGGSGSGTDFTLTISRLEPEDFAVYYCQQYDASPYSFGQGTKLDIK
B17: IMPI-027 (antibody, V domains shown)
VH: QVQLQESGPGLVKPSQTLSLTCTVSGGSISSYGYYWNWIRQHPGKGLEWIGYIYYSGSTYYNPSLKSRVTISVDTSKNQLSLRLNSVSAADTAVYYCARDFGGNSNYFDYWGQGTLVTVSS
VL: AIQLTQSPSSLSASVGDRVTITCRTSQGISSALAWYQQKPGKAPKLLIYDASSLESGVPSRFSGSGSGTDFTLTISSLQPEDFATYYCQQFNSYPLTFGGGTKVEIK
B18: IMPI-022 (antibody, V domains shown)
VH: EVQLVESGGGLVQPGRSLRLSCAASGFTFDDYAMHWVRQAPGKGLEWVSGITWNSGSIGYADSVKGRFTISRDNAKNSLYLHMNSLRVEDTALYYCAKDLQGDYYYYGVDVWGQGTTVTVSS
VL: AIQLTQSPSSLSASVGDRVTITCRASQGISSALAWYQQKPGKAPKLLLYDASSLVSGVPSRFSGSRSGTDFTLTISSLQPEDFATYYCQQFISYPLTFGGGTRVEIK
B19: IMPI-033 (antibody, V domains shown)
VH: QVQLQESGPGLVKPSQTLSLTCTVSGGSISSYGYYWSWIRQHPGKGLEWIGYIYYSGSTYYNPSLKSRVTMSVDTSKNQLSLRLNSVSAADTAVYYCARDFGGNSNYFDYWGQGTLVTVSS
VL: AIQLTQSPSSLSASVGDRVTITCRASQGISSALAWYQQKPGKAPNLLIYDASSLESGVPSRFSGSGSGTDFTLTISSLQPEDFATYYCQQFNSSPLTFGGGTKVEIK
B20: IMPI-032 (antibody, V domains shown)
VH: QVQLQESGPGLVKPSGTLSLTCAVSGGSISSNKWWSWVRQPPGKGLEWIGEIDHSGSTMYNPSLKSRVTISVDKSKNQFSLKLNSVTAADTAVYYCTGEGYNWNYWGQGTRVTVSS
VL: DVVMTQSPLSLPVTLGQTASISCRSSQSLLYTDGNTYLSWFQQRPGQSPRRLIYKVSKWESGVPDRFSGSGSGTDFTLKISRVEAEDVGIYYCMQGTHWPLTFGGGTKVEIK

For one assay, the target named is SARS-CoV-2 spike protein bearing furin mutation and truncation in retention sequence, on pseudovirus (SARS-CoV-2, UniProt P0DTC2 14-1255). The experiment in a line: cell-based or functional assay.
On to B1, for which the “pseudovirus neutralisation IC50” value worked out at 5450 pM. The same measure, in the same setting: in the case of B2 it was 3350 pM; in that of B3, 3300 pM; in that of B4, 3960 pM.

As to B5, the “pseudovirus neutralisation IC50” value came out at 2590 pM.

Take B6: the “pseudovirus neutralisation IC50” value came out at 530 pM.

Take B7: the “pseudovirus neutralisation IC50” value was 4680 pM. The same measure, in the same setting: the figure for B8 is 480 pM; for B9 it is 1330 pM; for B10 it is 300 pM. The same measure, in the same setting: in the case of B11 it was 270 pM. On the same count and under the same terms, in the case of B12 it was 520 pM; in that of B13, 520 pM.

Consider B14, for which the “pseudovirus neutralisation IC50” value is 530 pM. Same read-out and setting: the figure for B15 is 230 pM; for B16 it is 610 pM.

In a further assay the target is full-length stabilised spike trimer protein of SARS-CoV-2 virus (in-house, soluble ECD with trimeris (SARS-CoV-2, UniProt P0DTC2 14-1208; P10104 458-484).
Test: not given
As for B17, the “HTRF deltaF” value was found to be 800 deltaF. B18: the “HTRF deltaF” value was determined as 483 deltaF. Same read-out and setting: the figure for B19 is 884 deltaF.

In the case of B20, the “HTRF deltaF” value is 218 deltaF.

The next assay deals with T1, S1 subunit of the SARS-CoV-2 spike protein (Sino Biological 40591-V08H), His tag (SARS-CoV-2, UniProt P0DTC2 16-685).
T1 construct: domain: S1 subunit
Test: not given
Regarding B17, the “HTRF deltaF” value was found to be 755 deltaF. The same measure, in the same setting: the figure for B18 is -5.8 deltaF. The same measure, in the same setting: the figure for B19 is 929 deltaF. On the same count and under the same terms, in the case of B20 it was -8.9 deltaF.
